Test system: F1*sub RNA substrate (template-directed ligation)
Experiment: fraction ligated after 30 min (ligated reads / total reads); higher = more ligase activity; sequences stand for … in GAGACCGCAACTGAAAAGTTGT…AGTTCTGCACGTAGAAGCAAAAGGC
Details: 42 °C
Summary of the method: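 Oligo-pool templates of ligase ribozyme variants were PCR-amplified, T7-transcribed and gel-purified. Ligated and unligated bands were gel-separated, reverse transcribed with barcoded primers, and MiSeq-sequenced; core bases were filtered at quality ≥20. Fraction ligated per variant was ligated reads over total reads.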

**Q.** Which fraction ligated does the source give for TTCACTTGTCTAAACACTTTGGATGGGTTGA [3d404] here?
**A.** 0.719

**Q.** With TTCACTTGTCTAAGAACTTTGGATGGGTTGA [3d406] as the sequence, how does the fraction ligated read?
**A.** 0.349

**Q.** For TTCACTTGTCTAAGACACTTGGATGGGTTGA [3d409], which fraction ligated is on record?
**A.** 0.435

**Q.** TTCACTTGTCTAAGACACTTTGATGGGTTGA [3d410] was tested. Which fraction ligated did it give?
**A.** 0.312

**Q.** For TTCACTTGTCTAAGACACTTTGGAGGGTTGA [3d412], which fraction ligated is on record?
**A.** 0.154

**Q.** Which fraction ligated does the source give for TTCACTTGTCTAAGACACTTTGGATGGGTTA [3d414] here?
**A.** 0.344

**Q.** TTCACTTGTCTAAGACACTTTGGATGGGTTG [3d415] was tested. Which fraction ligated did it give?
**A.** 0.752

**Q.** With TTCACTTGTCTAAGACACTTTGGATGGGTTGA [2d32] as the sequence, how does the fraction ligated read?
**A.** 0.768

**Q.** How did the fraction ligated turn out when TTCACTTGTCTAAGACACTTTGGATGGTTGA [3d413] was run?
**A.** 0.661

**Q.** For TTCACTTGTCTAAGACACTTTGGTGGGTTGA [3d411], which fraction ligated is on record?
**A.** 0.035

**Q.** Which fraction ligated does the source give for TTCACTTGTCTAAGACATTTGGATGGGTTGA [3d408] here?
**A.** 0.753

**Q.** TTCACTTGTCTAAGACCTTTGGATGGGTTGA [3d407] was tested. Which fraction ligated did it give?
**A.** 0.578

**Q.** With TTCACTTGTCTAAGCACTTTGGATGGGTTGA [3d405] as the sequence, how does the fraction ligated read?
**A.** 0.67

**Q.** With TTCACTTGTCTAGACACTTTGGATGGGTTGA [3d403] as the sequence, how does the fraction ligated read?
**A.** 0.703

**Q.** TTCACTTGTGAAGACACTTTGGATGGGTTGA [3d388] was tested. Which fraction ligated did it give?
**A.** 0.767

**Q.** How did the fraction ligated turn out when TTCACTTGTGTAAACACTTTGGATGGGTTGA [3d390] was run?
**A.** 0.793

**Q.** For TTCACTTGTGTAAGAACTTTGGATGGGTTGA [3d392], which fraction ligated is on record?
**A.** 0.694

**Q.** With TTCACTTGTGTAAGACACTTGGATGGGTTGA [3d395] as the sequence, how does the fraction ligated read?
**A.** 0.161

**Q.** For TTCACTTGTGTAAGACACTTTGATGGGTTGA [3d396], which fraction ligated is on record?
**A.** 0.122

**Q.** TTCACTTGTGTAAGACACTTTGGAGGGTTGA [3d398] was tested. Which fraction ligated did it give?
**A.** 0.105

**Q.** For TTCACTTGTGTAAGACACTTTGGATGGGTTA [3d400], which fraction ligated is on record?
**A.** 0.132

**Q.** TTCACTTGTGTAAGACACTTTGGATGGGTTG [3d401] was tested. Which fraction ligated did it give?
**A.** 0.726

**Q.** Which fraction ligated does the source give for TTCACTTGTGTAAGACACTTTGGATGGGTTGA [2d31] here?
**A.** 0.781

**Q.** With TTCACTTGTGTAAGACACTTTGGATGGTTGA [3d399] as the sequence, how does the fraction ligated read?
**A.** 0.284

**Q.** TTCACTTGTGTAAGACACTTTGGTGGGTTGA [3d397] was tested. Which fraction ligated did it give?
**A.** 0.00981

**Q.** Which fraction ligated does the source give for TTCACTTGTGTAAGACATTTGGATGGGTTGA [3d394] here?
**A.** 0.778

**Q.** TTCACTTGTGTAAGACCTTTGGATGGGTTGA [3d393] was tested. Which fraction ligated did it give?
**A.** 0.548

**Q.** How did the fraction ligated turn out when TTCACTTGTGTAAGCACTTTGGATGGGTTGA [3d391] was run?
**A.** 0.775

**Q.** For TTCACTTGTGTAGACACTTTGGATGGGTTGA [3d389], which fraction ligated is on record?
**A.** 0.762

**Q.** Which fraction ligated does the source give for TTCACTTGTTAAGACACTTTGGATGGGTTGA [3d387] here?
**A.** 0.775

**Q.** TTCACTTTCGAAGACACTTTGGATGGGTTGA [3d357] was tested. Which fraction ligated did it give?
**A.** 0.145

**Q.** TTCACTTTCGTAAACACTTTGGATGGGTTGA [3d359] was tested. Which fraction ligated did it give?
**A.** 0.0493

**Q.** With TTCACTTTCGTAAGAACTTTGGATGGGTTGA [3d361] as the sequence, how does the fraction ligated read?
**A.** 0.832

**Q.** TTCACTTTCGTAAGACACTTGGATGGGTTGA [3d364] was tested. Which fraction ligated did it give?
**A.** 0.13

**Q.** TTCACTTTCGTAAGACACTTTGATGGGTTGA [3d365] was tested. Which fraction ligated did it give?
**A.** 0.0352

**Q.** With TTCACTTTCGTAAGACACTTTGGAGGGTTGA [3d367] as the sequence, how does the fraction ligated read?
**A.** 0.0281

**Q.** For TTCACTTTCGTAAGACACTTTGGATGGGTTA [3d369], which fraction ligated is on record?
**A.** 0.0133

**Q.** TTCACTTTCGTAAGACACTTTGGATGGGTTG [3d370] was tested. Which fraction ligated did it give?
**A.** 0.184

**Q.** With TTCACTTTCGTAAGACACTTTGGATGGGTTGA [2d29] as the sequence, how does the fraction ligated read?
**A.** 0.501

**Q.** TTCACTTTCGTAAGACACTTTGGATGGTTGA [3d368] was tested. Which fraction ligated did it give?
**A.** 0.0816

**Q.** With TTCACTTTCGTAAGACACTTTGGTGGGTTGA [3d366] as the sequence, how does the fraction ligated read?
**A.** 0.00787

**Q.** Which fraction ligated does the source give for TTCACTTTCGTAAGACATTTGGATGGGTTGA [3d363] here?
**A.** 0.775

**Q.** TTCACTTTCGTAAGACCTTTGGATGGGTTGA [3d362] was tested. Which fraction ligated did it give?
**A.** 0.437

**Q.** Which fraction ligated does the source give for TTCACTTTCGTAAGCACTTTGGATGGGTTGA [3d360] here?
**A.** 0.466

**Q.** How did the fraction ligated turn out when TTCACTTTCGTAGACACTTTGGATGGGTTGA [3d358] was run?
**A.** 0.142

**Q.** With TTCACTTTCTAAGACACTTTGGATGGGTTGA [3d356] as the sequence, how does the fraction ligated read?
**A.** 0.36

**Q.** With TTCACTTTGTAAGACACTTTGGATGGGTTGA [3d355] as the sequence, how does the fraction ligated read?
**A.** 0.747

**Q.** For TTCATGTCGTAAGACACTTTGGATGGGTTGA [3d317], which fraction ligated is on record?
**A.** 0.468

**Q.** Which fraction ligated does the source give for TTCATTGCGTAAGACACTTTGGATGGGTTGA [3d319] here?
**A.** 0.11

**Q.** Which fraction ligated does the source give for TTCATTGTCGAAGACACTTTGGATGGGTTGA [3d322] here?
**A.** 0.197

**Q.** With TTCATTGTCGTAAACACTTTGGATGGGTTGA [3d324] as the sequence, how does the fraction ligated read?
**A.** 0.068

**Q.** Which fraction ligated does the source give for TTCATTGTCGTAAGAACTTTGGATGGGTTGA [3d326] here?
**A.** 0.149

**Q.** TTCATTGTCGTAAGACACTTGGATGGGTTGA [3d329] was tested. Which fraction ligated did it give?
**A.** 0.453

**Q.** With TTCATTGTCGTAAGACACTTTGATGGGTTGA [3d330] as the sequence, how does the fraction ligated read?
**A.** 0.505

**Q.** With TTCATTGTCGTAAGACACTTTGGAGGGTTGA [3d332] as the sequence, how does the fraction ligated read?
**A.** 0.175

**Q.** How did the fraction ligated turn out when TTCATTGTCGTAAGACACTTTGGATGGGTTA [3d334] was run?
**A.** 0.0829

**Q.** With TTCATTGTCGTAAGACACTTTGGATGGGTTG [3d335] as the sequence, how does the fraction ligated read?
**A.** 0.285

**Q.** TTCATTGTCGTAAGACACTTTGGATGGGTTGA [2d27] was tested. Which fraction ligated did it give?
**A.** 0.509

**Q.** For TTCATTGTCGTAAGACACTTTGGATGGTTGA [3d333], which fraction ligated is on record?
**A.** 0.421

**Q.** TTCATTGTCGTAAGACACTTTGGTGGGTTGA [3d331] was tested. Which fraction ligated did it give?
**A.** 0.106

**Q.** Which fraction ligated does the source give for TTCATTGTCGTAAGACATTTGGATGGGTTGA [3d328] here?
**A.** 0.5

**Q.** TTCATTGTCGTAAGACCTTTGGATGGGTTGA [3d327] was tested. Which fraction ligated did it give?
**A.** 0.529

**Q.** For TTCATTGTCGTAAGCACTTTGGATGGGTTGA [3d325], which fraction ligated is on record?
**A.** 0.176

**Q.** Which fraction ligated does the source give for TTCATTGTCGTAGACACTTTGGATGGGTTGA [3d323] here?
**A.** 0.271

**Q.** TTCATTGTCTAAGACACTTTGGATGGGTTGA [3d321] was tested. Which fraction ligated did it give?
**A.** 0.203

**Q.** TTCATTGTGTAAGACACTTTGGATGGGTTGA [3d320] was tested. Which fraction ligated did it give?
**A.** 0.137

**Q.** With TTCATTTCGTAAGACACTTTGGATGGGTTGA [3d318] as the sequence, how does the fraction ligated read?
**A.** 0.104

**Q.** TTCCTGTCGTAAGACACTTTGGATGGGTTGA [3d298] was tested. Which fraction ligated did it give?
**A.** 0.746

**Q.** TTCCTTGCGTAAGACACTTTGGATGGGTTGA [3d300] was tested. Which fraction ligated did it give?
**A.** 0.779

**Q.** With TTCCTTGTCGAAGACACTTTGGATGGGTTGA [3d303] as the sequence, how does the fraction ligated read?
**A.** 0.796

**Q.** TTCCTTGTCGTAAACACTTTGGATGGGTTGA [3d305] was tested. Which fraction ligated did it give?
**A.** 0.786

**Q.** TTCCTTGTCGTAAGAACTTTGGATGGGTTGA [3d307] was tested. Which fraction ligated did it give?
**A.** 0.765

**Q.** TTCCTTGTCGTAAGACACTTGGATGGGTTGA [3d310] was tested. Which fraction ligated did it give?
**A.** 0.776

**Q.** Which fraction ligated does the source give for TTCCTTGTCGTAAGACACTTTGATGGGTTGA [3d311] here?
**A.** 0.595

**Q.** For TTCCTTGTCGTAAGACACTTTGGAGGGTTGA [3d313], which fraction ligated is on record?
**A.** 0.186

**Q.** How did the fraction ligated turn out when TTCCTTGTCGTAAGACACTTTGGATGGGTTA [3d315] was run?
**A.** 0.229

**Q.** Which fraction ligated does the source give for TTCCTTGTCGTAAGACACTTTGGATGGGTTG [3d316] here?
**A.** 0.731

**Q.** TTCCTTGTCGTAAGACACTTTGGATGGGTTGA [2d26] was tested. Which fraction ligated did it give?
**A.** 0.778

**Q.** With TTCCTTGTCGTAAGACACTTTGGATGGTTGA [3d314] as the sequence, how does the fraction ligated read?
**A.** 0.175

**Q.** Which fraction ligated does the source give for TTCCTTGTCGTAAGACACTTTGGTGGGTTGA [3d312] here?
**A.** 0.204

**Q.** How did the fraction ligated turn out when TTCCTTGTCGTAAGACATTTGGATGGGTTGA [3d309] was run?
**A.** 0.756

**Q.** TTCCTTGTCGTAAGACCTTTGGATGGGTTGA [3d308] was tested. Which fraction ligated did it give?
**A.** 0.737

**Q.** TTCCTTGTCGTAAGCACTTTGGATGGGTTGA [3d306] was tested. Which fraction ligated did it give?
**A.** 0.772

**Q.** Which fraction ligated does the source give for TTCCTTGTCGTAGACACTTTGGATGGGTTGA [3d304] here?
**A.** 0.77

— the supplement of paper PMC6755084
